Measured values published in article PMC7431817.

Tests used:
[1] = biological target: EGFR-GFP (epidermal growth factor receptor fused to GFP) on F1-4 cells (UniProt P00533); test: flow cytometry on cells; cells treated with 5 uM erlotinib at 37°C for 1 h and labelled with TAMRA-EGF in the continued presence of the inhibitor, 1 h on ice; Hill equation fit, apparent Kd; high expresser gate
[2] = biological target: EGFR-GFP (epidermal growth factor receptor fused to GFP) on F1-4 cells (UniProt P00533); test: flow cytometry on cells; cells treated with 5 uM lapatinib at 37°C for 1 h and labelled with TAMRA-EGF in the continued presence of the inhibitor, 1 h on ice; Hill equation fit, apparent Kd; all cells
[3] = biological target: EGFR-GFP (epidermal growth factor receptor fused to GFP) on F1-4 cells (UniProt P00533); test: flow cytometry on cells; cells treated with 5 uM erlotinib at 37°C for 1 h and labelled with TAMRA-EGF in the continued presence of the inhibitor, 1 h on ice; Hill equation fit, apparent Kd; medium expresser gate
[4] = biological target: EGFR-GFP (epidermal growth factor receptor fused to GFP) on F1-4 cells (UniProt P00533); test: flow cytometry on cells; cells treated with 5 uM lapatinib at 37°C for 1 h and labelled with TAMRA-EGF in the continued presence of the inhibitor, 1 h on ice; Hill equation fit, apparent Kd; high expresser gate
[5] = biological target: EGFR-GFP (epidermal growth factor receptor fused to GFP) on F1-4 cells (UniProt P00533); test: flow cytometry on cells; global fit of the paper's model (conformations of ECD and kinase domain, dimerization, ligand binding to monomers and dimers) to all 12 TAMRA-EGF binding data sets (untreated, erlotinib, lapatinib; three gates and all cells), 1 h on ice; K2-K9 shared; ligand constants in nM, receptor dimerization constants in number of receptors/cell
[6] = biological target: EGFR-GFP (epidermal growth factor receptor fused to GFP) on F1-4 cells (UniProt P00533); test: flow cytometry on cells; F1-4 cells treated with 2 uM latrunculin-B at 37°C for 10 min, then concentration series of TAMRA-EGF, 1 h on ice; Hill equation fit
[7] = biological target: EGFR-GFP (epidermal growth factor receptor fused to GFP) on F1-4 cells (UniProt P00533); test: flow cytometry on cells; cells treated with 5 uM lapatinib at 37°C for 1 h and labelled with TAMRA-EGF in the continued presence of the inhibitor, 1 h on ice; Hill equation fit, apparent Kd; low expresser gate
[8] = biological target: EGFR-GFP (epidermal growth factor receptor fused to GFP) on F1-4 cells (UniProt P00533); test: flow cytometry on cells; two-fold dilution series of TAMRA-EGF in PBS + 1% BSA on suspended F1-4 cells, 1 h on ice, measured without washing; Hill equation fit, apparent Kd; untreated (control) cells, all cells
[9] = biological target: EGFR-GFP (epidermal growth factor receptor fused to GFP) on F1-4 cells (UniProt P00533); test: flow cytometry on cells; cells treated with 5 uM lapatinib at 37°C for 1 h and labelled with TAMRA-EGF in the continued presence of the inhibitor, 1 h on ice; Hill equation fit, apparent Kd; medium expresser gate
[10] = biological target: EGFR-GFP (epidermal growth factor receptor fused to GFP) on F1-4 cells (UniProt P00533); test: flow cytometry on cells; F1-4 cells incubated with a concentration series of EGF for 24 h on ice; Hill equation fit; the paper finds internalized EGF and questions equilibrium at this time

“Tetramethylrhodamine-labeled EGF (ligand)” was tested, and the Kd [1] was 1.7 nM, the Kd [2] was 4.9 nM and the Kd [3] was 1.8 nM. For the same substance, the Kd [4] was 4.9 nM, the K3, Kd of EGF binding to a monomer with extended ECD [5] was 1.3 nM and the K5, Kd of binding of the first EGF to a dimer with inactive, symmetric kinase dimer [5] was 95 nM. The K6, Kd of binding of the second EGF to a dimer with inactive, symmetric kinase dimer [5] was 0.45 nM, the K9, Kd of binding of the second EGF to a dimer with active, asymmetric kinase dimer [5] was 2.96 nM and the Kd [6] was 8.2 nM. For the same substance, the Kd [7] was 6.3 nM, the Kd [8] was 3.4 nM and the Kd [9] was 5.1 nM. The Kd [10] was 5.2 nM.
